Like-named read-outs stand apart in the source and are kept apart here.
Columns and labels:
Test in all cases: ELISA
Collagen I [1] = biological target: Collagen I
Collagen III [2] = biological target: Collagen III
Collagen I [3] = biological target: Collagen I; remark: listed apart in the source
Collagen III [4] = biological target: Collagen III; remark: listed apart in the source

Kd (Collagen I [1]): 1.8 nM
Kd (Collagen III [2]): 40.6 nM
Kd (Collagen I [3]): 1.8 nM
Kd (Collagen III [4]): 40.6 nM
B1: CBD-SA (other)
chain: CSQPLDVILLLDGSSSFPASYFDEMKSFAKAFISKANIGPRLTQVSVLQYGSITTIDVPWNVVPEKAHLLSLVDVMQREGGPSQIGDALGFAVRYLTSEMHGARPGASKAVVILVTDVSVDSVDAAADAARSNRVTVFPIGIGDRYDAAQLRILAGPAGDSNVVKLQRIEDLPTMVTLGNSFLHKLCSGFVRIGGGSGGGSEAHKSEIAHRYNDLGEQHFKGLVLIAFSQYLQKCSYDEHAKLVQEVTDFAKTCVADESAANCDKSLHTLFGDKLCAIPNLRENYGELADCCTKQEPERNECFLQHKDDNPSLPPFERPEAEAMCTSFKENPTTFMGHYLHEVARRHPYFYAPELLYYAEQYNEILTQCCAEADKESCLTPKLDGVKEKALVSSVRQRMKCSSMQKFGERAFKAWAVARLSQTFPNADFAEITKLATDLTKVNKECCHGDLLECADDRAELAKYMCENQATISSKLQTCCDKPLLKKAHCLSEVEHDTMPADLPAIAADFVEDQEVCKNYAEAKDVFLGTFLYEYSRRHPDYSVSLLLRLAKKYEATLEKCCAEANPPACYGTVLAEFQPLVEEPKNLVKTNCDLYEKLGEYGFQNAILVRYTQKAPQVSTPTLVEAARNLGRVGTKCCTLPEDQRLPCVEDYLSAILNRVCLLHEKTPVSEHVTKCCSGSLVERRPCFSALTVDETYVPKEFKAETFTFHSDICTLPEKEKQIKKQTALAELVKHKPKATAEQLKTVMDDFAQFLDTCCKAADKDTCFSTEGPNLVTRCKDALAHHHHHH

Reference: patent publication US20220298225A1 (published 2022)
